Source: paper PMC4234207

Target: T1, GST-FKH-FoxA2 (Rattus norvegicus (rat; cloned from genomic DNA)) (UniProt P32182)
T1 sequence (P32182 145-290, looked up): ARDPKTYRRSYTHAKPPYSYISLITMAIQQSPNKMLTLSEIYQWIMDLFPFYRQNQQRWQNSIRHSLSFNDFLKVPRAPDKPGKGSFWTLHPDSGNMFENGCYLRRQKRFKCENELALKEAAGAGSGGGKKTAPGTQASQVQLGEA
Assay: EMSA and self-competition
Details: reference probe; 25 mM HEPES pH 7.6, 150 mM KCl, 0.2 mM EDTA, 0.2 mM EGTA, 10% glycerol, 1 mM DTT, 3 ug protein, 1 ng 32P-TTR probe, 2/5/20 ng competitor, on ice 15 min; 4% …

CAGTCGAGTTGACTAAGTCAATAATCAGAATCAGTCG (double strand) [TTR]
binding signal (EMSA score (TTR=1)): 1
